Data reported in publication PMC12072002, “Site-Directed Mutagenesis Increased the Catalytic Activity and Stability of Oenococcus oeni β-Glucosidase: Characterization of Enzymatic Properties and Exploration of Mechanisms” (International Journal of Molecular Sciences, 2025).
Changes are numbered by the printed parent chain. Names may count otherwise. Marks after values point to notes of the source that are not given here.

B1: mutant III (Oenococcus oeni PSU-1; F133K) (protein)
chain: MNKLFLPKNFLWGGAVAANQLEGGWDQDNKGLSVADIMTAGANGKAREITDGIVKGKYYPNHEAIDFYHRYKEDIKLFAEMGFKCFRTSIAWTRIFPNGDEEQPNEAGLKFYDQLFDECHKYGIEPVITLSHKEMPYHLVKAYGGWRNRKLIDFFVRFAKTVFKRYKDKVSYWMTFNEIDNQTDYTNRFLMATNSGLILKNDQSDAESLMYQAAHYELVASALAVKLGHSINPNFQIGCMINMTPVYPASSKPADIFQAEKAMQRRYWFSDIHALGKYPENMEVFLKQNNFRPDITSEDRIVLKEGTVDYIGLSYYNSMTVQSKESNPGFHFIGPELTVDNPNVEKSDWGWPIDPLGLRYSLNWLADHYHKPLFIVENGLGAYDKVENSQQIHDPYRIAYLKAHIQAMIDAVQEDGVKVIGYTPWGCIDLVSAGTGQMSKRYGFIYVDKDDQGKGSLKRLKKDSFFWYQQVIQSNGSQLD
notes: purified recombinant, pMG36e plasmid, expressed in Lactococcus lactis MG1363
B2: mutant IV (Oenococcus oeni PSU-1; N181R) (protein)
chain: B1 chain with K133F, N181R
notes: as for B1
B3: wild-type enzyme (Oenococcus oeni PSU-1) (protein)
chain: B1 chain with K133F
notes: purified recombinant BGL0224 (MT330371.1), plasmid pMG36e-0224, expressed in Lactococcus lactis MG1363

Legend:
Assay in all cases: p-Nitrophenol release read at 420 nm after Na2CO3 stop, 0.1-25 mM substrate in 20 mM sodium phosphate buffer at each enzyme's optimum (wild type pH 5.0, 50 °C; mutant III pH 3.5, 50 °C; mutant IV pH 4.0, 45 °C), Hill function fit in Origin.
Type in all cases: biochemical
[1] = substrate: O=[N+]([O-])c1ccc(O[C@@H]2OC[C@@H](O)[C@H](O)[C@H]2O)cc1
Experimental: (§1) 3.9. Enzymatic Reaction Kinetics and Substrate Specificity
(§2) The determination of enzymatic reaction kinetics was conducted according to Zhang et al., with slight modifications. Different concentrations (0.1 mM, 0.2 mM, 0.5 mM, 1.0 mM, 2.0 mM, 5.0 mM, 8.0 mM, 10 mM, 12 mM, 15 mM, 20 mM and 25 mM) of p-NPG substrate solutions were prepared with 20 mM sodium phosphate buffer. Then, 100 μg of enzyme lyophilized powder were added to 500 μL of p-NPG solutions at different concentrations. Next, this was reacted for 0 min, 5 min, 10 min, 15 min, 20 min, 25 min and 30 min under optimal reaction conditions, and at the end of each set of reactions, 500 μL 1 M of Na2CO3 solution were added to terminate the reaction. The absorbance value of each reaction system was measured at 420 nm and the amount of p-NP corresponding to different reaction times at specific substrate concentrations was calculated from the standard curve. The kinetic constants (Vmax and Km) of each reaction system were determined by fitting using the Hill function in the class of Growth/Inverse Curve for nonlinear fitting in the Origin Pro 8.0 software.
(§3) All experiments were set up in three parallels. The activities of the wild-type enzyme and five mutants were analyzed by ANOVA at the significance level of p < 0.05 using the SPSS 26.0 software, and multiple comparisons of the means were performed using Duncan’s method. The kinetic parameters of the enzymatic reactions for the wild-type enzyme and mutants catalyzing four substrates were subjected to independent sample t-tests at a significance level of p < 0.05, and the data were expressed as mean ± standard deviation. The experimental results were plotted using the Origin 2021 software.

[2] = substrate: O=[N+]([O-])c1ccc(O[C@@H]2O[C@H](CO)[C@@H](O)[C@H](O)[C@H]2O)cc1
Experimental: as §1, §2, §3

[3] = substrate: O=[N+]([O-])c1ccc(O[C@@H]2O[C@H](CO)[C@H](O)[C@H](O)[C@H]2O)cc1
Experimental: as §1, §2, §3

[4] = substrate: O=[N+]([O-])c1ccc(O[C@H]2O[C@H](CO)[C@@H](O)[C@H](O)[C@H]2O)cc1
Experimental: as §1, §2, §3

Row | Protein | Km [1] | Vmax [1] | kcat [1] | kcat/Km [1] | Km [2] | Vmax [2] | kcat [2] | kcat/Km [2] | Km [3] | Vmax [3] | kcat [3] | kcat/Km [3] | Km [4] | Vmax [4] | kcat [4] | kcat/Km [4]
1 | B1 | 1.24 ± 0.13 ^b mM | 337 ± 4.61 µM/min/mg | 310 ± 4.24 s⁻¹ | 250000 M⁻¹ s⁻¹ | 0.27 ± 0.05 ^b mM | 533 ± 6.51 µM/min/mg | 490 ± 5.98 s⁻¹ | 1.81e+06 M⁻¹ s⁻¹ | 0.52 ± 0.17 ^a mM | 349 ± 4.83 µM/min/mg | 321 ± 4.44 s⁻¹ | 617000 M⁻¹ s⁻¹ | 1.19 ± 0.23 ^b mM | 25.8 ± 2.06 µM/min/mg | 23.7 ± 1.89 s⁻¹ | 19900 M⁻¹ s⁻¹
2 | B2 | 1.17 ± 0.16 ^a mM | 359 ± 3.88 µM/min/mg | 330 ± 3.57 s⁻¹ | 282000 M⁻¹ s⁻¹ | 0.22 ± 0.03^a mM | 841.6 ± 3.82 µM/min/mg | 773.6 ± 3.52 s⁻¹ | 3.52e+06 M⁻¹ s⁻¹ | 0.87 ± 0.24 ^c mM | 257 ± 5.47 µM/min/mg | 237 ± 5.03 s⁻¹ | 272000 M⁻¹ s⁻¹ | 1.27 ± 0.19 ^c mM | 19.9 ± 1.98 µM/min/mg | 18.4 ± 1.82 s⁻¹ | 14400 M⁻¹ s⁻¹
3 | B3 | 1.31 ± 0.22 ^c mM | 308 ± 3.64 µM/min/mg | 283 ± 3.34 s⁻¹ | 216000 M⁻¹ s⁻¹ | 0.33 ± 0.03 ^c mM | 363 ± 4.13 µM/min/mg | 334 ± 3.8 s⁻¹ | 1.01e+06 M⁻¹ s⁻¹ | 0.81 ± 0.16 ^b mM | 231 ± 5.71 µM/min/mg | 212 ± 5.25 s⁻¹ | 262000 M⁻¹ s⁻¹ | 1.07 ± 0.20 ^a mM | 29.6 ± 1.83 µM/min/mg | 27.2 ± 1.68 s⁻¹ | 25400 M⁻¹ s⁻¹
